Measured values reported in US20160130303.
Changes are numbered by the printed parent chain. Numbers in names are those of the source.

How the values were obtained:
[1] = biological target: T1, PGS-1, YRRAAVPPSPSLSRHSSPSQS(p)EDEEE
T1 chain: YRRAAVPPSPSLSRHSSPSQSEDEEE

p9CREB, ILSRRPS(p)YR = biological target: T2, p9CREB, ILSRRPS(p)YR
T2 chain: ILSRRPSYR

[2] = biological target: T3, pIRS-1, RREGGMSRPAS(p)VDG
T3 chain: RREGGMSRPASVDG

L803-mts = biological target: T4, L803-mts (not fully specified)
T4 chain: GKEAPPAPPQSP

B1: GSK-3β F93A mutant (protein)
chain: MSGRPRTTSFAESCKPVQQPSAFGSMKVSRDKDGSKVTTVVATPGQGPDRPQEVSYTDTKVIGNGSFGVVYQAKLCDSGELVAIKKVLQDKRAKNRELQIMRKLDHCNIVRLRYFFYSSGEKKDEVYLNLVLDYVPETVYRVARHYSRAKQTLPVIYVKLYMYQLFRSLAYIHSFGICHRDIKPQNLLLDPDTAVLKLCDFGSAKQLVRGEPNVSYICSRYYRAPELIFGATDYTSSIDVWSAGCVLAELLLGQPIFPGDSGVDQLVEIIKVLGTPTREQIREMNPNYTEFKFPQIKAHPWTKDSSGTGHFTSGVRVFRPRTPPEAIALCSRLLEYTPTARLTPLEACAHSFFDELRDPNVKLPNGRDTPALFNFTTQELSSNPPLATILIPPHARIQAAASTPTNATAASDANTGDRGQTNNAASASASNST
Substrate phosphorylation (% of WTGSK-3β) (% of WTGSK-3β) [1]: 13 | Substrate phosphorylation (% of WTGSK-3β) (% of WTGSK-3β) (p9CREB, ILSRRPS(p)YR): 46 | Substrate phosphorylation (% of WTGSK-3β) (% of WTGSK-3β) [2]: 42

B2: wild-type (WT) GSK-3β (protein)
chain: B1 chain with A93F
in vitro kinase assays using pIRS-1, p9CREB, and pGS-1 substrate in the presence or absence of L803-mts (100 µM) (L803-mts): L803-mts (SEQ ID NO:5) competes with various substrates

B3: GSK-3β K94A mutant (protein)
chain: B1 chain with A93F, K94A
Substrate phosphorylation (% of WTGSK-3β) (% of WTGSK-3β) [1]: 19 | Substrate phosphorylation (% of WTGSK-3β) (% of WTGSK-3β) (p9CREB, ILSRRPS(p)YR): 71 | Substrate phosphorylation (% of WTGSK-3β) (% of WTGSK-3β) [2]: 52

B4: GSK-3β D90A mutant (protein)
chain: B1 chain with D90A, A93F
Substrate phosphorylation (% of WTGSK-3β) (% of WTGSK-3β) [1]: 83 | Substrate phosphorylation (% of WTGSK-3β) (% of WTGSK-3β) (p9CREB, ILSRRPS(p)YR): 92 | Substrate phosphorylation (% of WTGSK-3β) (% of WTGSK-3β) [2]: 88

B5: GSK-3β K91A mutant (protein)
chain: B1 chain with K91A, A93F
Substrate phosphorylation (% of WTGSK-3β) (% of WTGSK-3β) [1]: 119 | Substrate phosphorylation (% of WTGSK-3β) (% of WTGSK-3β) (p9CREB, ILSRRPS(p)YR): 161 | Substrate phosphorylation (% of WTGSK-3β) (% of WTGSK-3β) [2]: 140

B6: GSK-3β R92A mutant (protein)
chain: B1 chain with R92A, A93F
Substrate phosphorylation (% of WTGSK-3β) (% of WTGSK-3β) [1]: 41 | Substrate phosphorylation (% of WTGSK-3β) (% of WTGSK-3β) (p9CREB, ILSRRPS(p)YR): 49 | Substrate phosphorylation (% of WTGSK-3β) (% of WTGSK-3β) [2]: 60
